Consider four molecules from patent US20150274820A1 (ESBATECH AN ALCON BIOMEDICAL RESEARCH UNIT, published 2015).

Assay [1] deals with T1, recombinant human VEGF165 (human, UniProt P15692 27-191).
T1 construct: mature; Isoform VEGF165 of the entry; also called hVEGF165; hVEGF
Put plainly: Biacore SPR, VEGF immobilized, pH 7.4. On the procedure: (§1) In this example, the Biacore-binding ability of scFvs was tested and the binding affinity was measured using the exemplary surface plasmon resonance method with BIAcore™-T100. The VEGF proteins, tested for binding by these scFv candidates, in this example and later examples include purified Escherichia coli-expressed recombinant human VEGF₁₆₅ (PeproTech EC Ltd.), recombinant human VEGF₁₂₁ (PeproTech EC Ltd.), recombinant human VEGF₁₁₀ (ESBATech AG), recombinant murine VEGF₁₆₄ (PeproTech EC Ltd.), recombinant rat VEGF₁₆₄ (Biovision), recombinant rabbit VEGF₁₁₀ (ESBATech AG), and recombinant human PLGF (PeproTech EC Ltd.). For the surface plasmon resonance experiment, carboxymethylated dextran biosensor chips (CM4, GE Healthcare) were activated with N-ethyl-N′-(3-dimethylaminopropyl) carbodiimide hydrochloride and N-hydroxysuccinimide according to the supplier's instructions. Each of the 6 different VEGF forms, as exemplified above, was coupled to 1 of the 4 different flow cells on a CM4 sensor chip using a standard amine-coupling procedure. […] The 4th flow cell of each chip was treated similarly except no proteins were immobilized prior to blocking, and the flow cell was used as in-line reference. […] Dissociation of the anti-VEGF scFv from the VEGF on the CM4 chip was allowed to proceed for 10 min at 25° C. Sensorgrams were generated for each anti-VEGF scFv sample after in-line reference cell correction followed by buffer sample subtraction. The apparent dissociation rate constant (kd), the apparent association rate constant (kₐ) and the apparent dissociation equilibrium constant (KD) were calculated using one-to-one Langmuir binding model with BIAcore T100 evaluation Software version 1.1.
(SPR reads the build-up and loss of mass on a sensor chip optically.)
Target sequence in this assay (P15692 other isoform, or with tags, fused parts or gaps): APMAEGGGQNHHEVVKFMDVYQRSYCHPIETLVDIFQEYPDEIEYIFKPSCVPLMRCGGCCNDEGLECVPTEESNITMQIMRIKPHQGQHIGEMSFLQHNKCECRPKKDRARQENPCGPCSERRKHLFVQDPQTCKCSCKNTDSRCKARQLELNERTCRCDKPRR

For assay [2], the target named is T1, recombinant human VEGF165. Put plainly: Biacore SPR, VEGF immobilized, pH 5. On the procedure:
as §1
Target sequence in this assay (P15692 other isoform, or with tags, fused parts or gaps): as above

Assay [3] concerns the target T2, recombinant human VEGF121 (human, UniProt P15692 27-147).
T2 construct: mature; Isoform VEGF121 of the entry; also called hVEGF121
T2 sequence (looked up): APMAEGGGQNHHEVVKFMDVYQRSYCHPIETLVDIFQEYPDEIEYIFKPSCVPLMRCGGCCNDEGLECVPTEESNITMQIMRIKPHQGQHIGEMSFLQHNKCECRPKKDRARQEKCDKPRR
Put plainly: Biacore SPR, VEGF immobilized, pH 5. On the procedure: as §1

The target of assay [4] is T3, recombinant human VEGF110 (human, UniProt P15692-4 27-136, limits assumed).
T3 construct: Made in house; also called hVEGF110
T3 sequence (looked up): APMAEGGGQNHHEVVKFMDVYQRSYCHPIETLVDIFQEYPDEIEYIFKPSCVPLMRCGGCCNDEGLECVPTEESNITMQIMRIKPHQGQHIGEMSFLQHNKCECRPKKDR
Briefly: Biacore SPR, VEGF immobilized, pH 5. On the procedure: as §1

Assay [5] deals with T1, recombinant human VEGF165. Briefly: Biacore SPR, VEGF immobilized, pH 5. On the procedure:
as §1
The source holds these as a separate data set.
Target sequence in this assay (P15692 other isoform, or with tags, fused parts or gaps): as the sequence (P15692 other isoform, or with tags, fused parts or gaps) above

Assay [6] deals with T4, recombinant human PLGF (human, UniProt P49763-2 19-149, limits assumed).
T4 construct: Negative control; also called PIGF
T4 sequence (looked up): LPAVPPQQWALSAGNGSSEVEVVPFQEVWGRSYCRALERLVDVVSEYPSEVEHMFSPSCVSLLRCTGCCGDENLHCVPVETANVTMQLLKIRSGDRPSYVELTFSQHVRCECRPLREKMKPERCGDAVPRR
Briefly: Biacore SPR, PlGF immobilized, pH 5. On the procedure: as §1

Assay [7] addresses T1, recombinant human VEGF165. Briefly: cell-based or functional assay.
Target sequence in this assay (P15692 other isoform, or with tags, fused parts or gaps): as the sequence (P15692 other isoform, or with tags, fused parts or gaps) above
Assay [8] deals with T1, recombinant human VEGF165. Put plainly: VEGFR1/Fc competition ELISA on coated hVEGF165; ratio to Lucentis. As for the experimental part: After 30-60 min of incubation at room temperature, the mixtures were transferred to the human VEGF₁₆₅ immobilized plate and incubated for 90 min. […] Optical density at 450 nm (OD 450 nm) was measured using a Sunrise microplate reader (Tecan). Data were analyzed as above, and EC₅₀ values were calculated from the dose-response curves of the scFvs.
On the technique in general: ELISA stands for enzyme-linked immunosorbent assay.
Target sequence in this assay (P15692 other isoform, or with tags, fused parts or gaps): as the sequence (P15692 other isoform, or with tags, fused parts or gaps) above

Assay [9] has as its target recombinant murine VEGF164 (mouse) (UniProt Q00731). Briefly: Biacore SPR, VEGF immobilized, pH 5.
In assay [10] the target is recombinant rat VEGF164 (rat) (UniProt P16612). Put plainly: Biacore SPR, VEGF immobilized, pH 5.
Assay [11] concerns the target T1, recombinant human VEGF165. Put plainly: cell-based or functional assay. This is another data set of the same source.
The target in assay [12] is T1, recombinant human VEGF165. Put plainly: Biacore SPR, VEGF immobilized, pH 5. On the procedure:
as §1, with “1.1. […]” for “1.1.”
Target sequence in this assay (P15692 other isoform, or with tags, fused parts or gaps): as the sequence (P15692 other isoform, or with tags, fused parts or gaps) above
This is another data set of the same source.

B1: 509-max (scFv)
scFv: EIVMTQSPSTLSASVGDRVIITCQASQNIRIWLSWYQQKPGKAPKLLIYKASTLESGVPSRFSGSGSGTEFTLTISSLQPDDFATYYCQNNAHYSTNGGTFGQGTKLTVLGGGGGSGGGGSGGGGSGGGGSEVQLVESGGGLVQPGGSLRLSCTASGFSLSSYYMCWVRQAPGKGLEWVGCLDYVGDTDYASWAKGRFTISKDASKNTVYLQMNSLRAEDTAVYYCARTDDSRGWGLNIWGQGTLVTVSS
notes: VL and VH tied by name; also called Protein Nr; 855
The koff is a measure of how fast the partners let go of each other. The term kon denotes a measure of how fast the partners come together. B1: the koff in assay [1] turned out to be 0.000537 s⁻¹; in [2], 0.00272 s⁻¹; in assay [3] it was 0.000249 s⁻¹; in [4] it was 0.000235 s⁻¹; in assay [5], 0.00272 s⁻¹; in assay [9], 0.0059 s⁻¹. In [10], the koff stood at 0.00645 s⁻¹. For the same molecule, the kon turned out to be 1.42e+06 M⁻¹ s⁻¹ in [1]; 2.26e+06 M⁻¹ s⁻¹ in [2]; 742000 M⁻¹ s⁻¹ in assay [3]; 648000 M⁻¹ s⁻¹ in assay [4]; 2.26e+06 M⁻¹ s⁻¹ in assay [5]; 4.09e+06 M⁻¹ s⁻¹ in assay [9]. In assay [10], the kon was found to be 3.9e+06 M⁻¹ s⁻¹. Further, the binding result in assay [6] is on record as “no binding”. Further, the “Rel. activity in HUVEC assay (EC50Luc[nM]/EC50test[nM])” value in [7] was 0.003. Also, the “Rel. activity hVEGR1 comp. ELISA (EC50Luc[nM]/EC50test[nM])” value (“Rel. activity hVEGR1 comp. ELISA” below) in [8] was 13.

B2: 509-maxII (scFv)
scFv: EIVMTQSPSTLSASVGDRVIITCQASQNIRIWLSWYQQKPGKAPKLLIYKASTLESGVPSRFSGSGSGTEFTLTISSLQPDDFATYYCQNNAHYSTNGGTFGQGTKLTVLGGGGGSGGGGSGGGGSGGGGSEVQLVESGGGLVQPGGSLRLSCTASGFSLSSYYMSWVRQAPGKGLEWVGILDYVGDTDYASWAKGRFTISKDASKNTVYLQMNSLRAEDTAVYYCARTDDSRGWGLNIWGQGTLVTVSS
notes: VH tied by name; also called Protein Nr
In the case of B2, the koff came to 0.0198 s⁻¹ in [1]; 0.00282 s⁻¹ in [2]; 0.00123 s⁻¹ in assay [3]; 0.00133 s⁻¹ in assay [4]; 0.00282 s⁻¹ in assay [5]; 0.0601 s⁻¹ in assay [9]. Moreover, the koff in [10] is 0.0266 s⁻¹. Further, the kon in [1] is 7.59e+06 M⁻¹ s⁻¹; in [2] it was 838000 M⁻¹ s⁻¹; in [3] it was 897000 M⁻¹ s⁻¹; in [4], 901000 M⁻¹ s⁻¹; in [5], 838000 M⁻¹ s⁻¹; in assay [9], 3.47e+07 M⁻¹ s⁻¹. The kon in [10] is 1.47e+07 M⁻¹ s⁻¹. Also, the binding result in assay [6] was “no binding”. The “Rel. activity in HUVEC assay (EC50Luc[nM]/EC50test[nM])” value in assay [7] was determined as 0.0009. Besides, the “Rel. activity hVEGR1 comp. ELISA” value in assay [8] worked out at 0.09.

B3: 509-min (scFv)
scFv: EIVMTQSPSTLSASVGDRVIITCQASQNIRIWLSWYQQKPGKAPKLLIYKASTLESGVPSRFSGSGSGAEFTLTISSLQPDDFATYYCQNNAHYSTNGGTFGQGTKLTVLGGGGGSGGGGSGGGGSGGGGSEVQLVESGGGLVQPGGSLRLSCAASGFSLSSYYMCWVRQAPGKGLEWVSCLDYVGDTDYASWAKGRFTISRDNSKNTLYLQMNSLRAEDTAVYYCAKTDDSRGWGLNIWGQGTLVTVSS
notes: VL and VH tied by name; also called Protein Nr; 854
In the case of B3, the koff came to 0.0108 s⁻¹ in assay [1]; 0.00114 s⁻¹ in assay [2]; 0.000453 s⁻¹ in assay [3]; 0.000474 s⁻¹ in [4]; 0.00114 s⁻¹ in [5]; 0.001 s⁻¹ in assay [9]. Moreover, the koff in assay [10] worked out at 0.000844 s⁻¹. The kon in assay [1] was found to be 3.52e+06 M⁻¹ s⁻¹; in assay [2] it was 623000 M⁻¹ s⁻¹; in assay [3], 354000 M⁻¹ s⁻¹; in assay [4], 287000 M⁻¹ s⁻¹; in assay [5], 623000 M⁻¹ s⁻¹; in assay [9], 614000 M⁻¹ s⁻¹. In assay [10], the kon stood at 351000 M⁻¹ s⁻¹. In assay [6], the binding result was “no binding”. The “Rel. activity hVEGR1 comp. ELISA” value in assay [8] is 2.9.

B4: 511-min (scFv)
scFv: EIVMTQSPSTLSASVGDRVIITCQASQSINIWCSWYQQKPGKAPKLLIYRASTLASGVPSRFSGSGSGAEFTLTISSLQPDDFATYYCQANYAYSAGYGAAFGQGTKLTVLGGGGGSGGGGSGGGGSGGGGSEVQLVESGGGLVQPGGSLRLSCAASGFSLNTYYMNWVRQAPGKGLEWVSIIAPDDTTYYASWAKSRFTISRDNSKNTLYLQMNSLRAEDTAVYYCAKSGDTTAWGADIWGQGTLVTVSS
notes: VL and VH tied by name; also called Protein Nr
Regarding B4, the koff turned out to be 0.000885 s⁻¹ in [1]; 0.00128 s⁻¹ in assay [12]; 0.00128 s⁻¹ in [2]; 0.000963 s⁻¹ in assay [3]; 0.000898 s⁻¹ in assay [4]; 0.00128 s⁻¹ in assay [5]. Further, the figures for the koff in [9] and in assay [10] were 0.00103 s⁻¹ and 0.00112 s⁻¹, respectively. The kon in assay [1] was determined as 675000 M⁻¹ s⁻¹; in assay [12], 505000 M⁻¹ s⁻¹; in assay [2], 505000 M⁻¹ s⁻¹; in assay [3], 778000 M⁻¹ s⁻¹; in assay [4] it was 619000 M⁻¹ s⁻¹; in assay [5] it was 505000 M⁻¹ s⁻¹. The kon is 625000 M⁻¹ s⁻¹ in assay [9] and 550000 M⁻¹ s⁻¹ in assay [10]. Further, in [11], the “Rel. activity in HUVEC assay (EC50Luc[nM]/EC50test[nM]) hVEGF” value worked out at 0.0011. For the same molecule, the binding result in assay [6] is on record as “no binding”. Besides, the “Rel. activity in HUVEC assay (EC50Luc[nM]/EC50test[nM])” value in assay [7] came out at 0.0011. In addition, the “Rel. activity hVEGR1 comp. ELISA” value in [8] was 0.7.
